Laboratory results taken from article PMC10602183 (Research Square, 2023).

Tests used:
[1] = target: T1, gp120 derived from HIV-1 SF162, biotinylated (HIV-1 isolate SF162, UniProt P19550, strain, biotin (Lynx biotinylation kit)); test: flow cytometry on cells; HmAb64 blocking the staining of primary human CD4+ T cells by biotinylated gp120 (antibody and gp120 both purified proteins in solution); conditions: both partners purified
T1 construct: gp120 subunit of Env (cut product of gp160) of HIV-1 isolate SF162; also called SF162 gp120

[2] = target: T2, wild type gp120 Env protein of HIV-1 JR-FL (HIV-1 isolate JR-FL, UniProt Q75760, strain); test: ELISA; mAb64 against gp120, gp120-Core or their D368R mutant protein, as previously described; conditions: both partners purified
T2 construct: gp120 subunit of Env (cut product of gp160) of HIV-1 isolate JR-FL; The ELISA methods name gp120 and gp120-Core proteins; also called JR-FL gp120

[3] = target: T3, wild type gp120 Env protein of HIV-1 YU2 (HIV-1 isolate YU2, UniProt P35961); test: as above; conditions: both partners purified
T3 construct: gp120 subunit of Env (cut product of gp160) of HIV-1 isolate YU2; The ELISA methods name gp120 and gp120-Core proteins; also called YU2 gp120

A244 gp120 = target: T4, A244 gp120 (HIV-1 isolate A244); test: SPR; Biacore 3000, CM4 or CM5 chips; gp120 or BG505-SOSIP amine-coupled to about 750 RU; HBS pH 7.4, 3 mM EDTA, 0.005% Tween-20, 0.05% carboxymethyl-dextran; 25 ul/min, 25 °C; conditions: both partners purified
T4 construct: gp120 subunit of Env (cut product of gp160) of HIV-1 isolate A244; also called gp120 protein from A244 viral isolate

[4] = target: T5, HIV-1 SF162 Env on infected CD4+ T cells (HIV-1 isolate SF162, UniProt P19550, strain); test: flow cytometry on cells; primary human CD4+ T cells infected with HIV SF162 for 3 days, stained with HmAb64 (2 ug), goat anti-human-PE; uninfected cells as control; conditions: one partner purified
T5 construct: Env as the target follows from the antibody's specificity; also called HIV-1 on cell surface; SF162 infected CD4+ T cells; source: primary human CD4+ T cells infected with HIV SF162, on cells

Measured: binding result

B1: HmAb64 (antibody, V domains shown)
VH: QVQLVQSGAEVKKPGASVKVSCKASGYTFTSYDITWVRQAPGQGLEWMGWISAYNGDTNYAQRLQGRVTMTTDTSTSTAYMELRSLRSDDTAVYYCARAKHTVLVTAMRWFDPWGQGTLVTVSS
VL: DIQMTQSPSSLSASVGDRVTITCRASQSISNYLNWYQQKPGKAPKLLISATSSLQSGVPSRFSGSGSGTDFTLTISSLQPDDFATYYCQQSYSTPWTFGQGTKLEIK
notes: germline IGHV1-18*01, CDR H3 of 15 aa (Kabat); full-length human IgG heavy chain cloned from clone #64; germline IGKV1-39*01, CDR L3 of 9 aa (Kabat); kappa chain cloned from clone #64; Human IgG, kappa; also called clone #64; human IgG (HmAb64)
binds: [1] | [2] | [3] | A244 gp120 | [4]
